Results as given in US20200002439A1.

Legend:
[1] = target: His tagged human Angiopoietin-2 (human) (UniProt O15123); assay: bio-layer interferometry, rhAng2-His
[2] = target: recombinant human Ang2 (human) (UniProt O15123); assay: blocking ELISA: Ang2 coated on the plate, binding of recombinant human Tie2 is blocked
human TGFβ1 (human) = human TGFβ1 (human) (UniProt P01137)
human TGFβ1 (human), sequence (P01137 279-390 limits assumed): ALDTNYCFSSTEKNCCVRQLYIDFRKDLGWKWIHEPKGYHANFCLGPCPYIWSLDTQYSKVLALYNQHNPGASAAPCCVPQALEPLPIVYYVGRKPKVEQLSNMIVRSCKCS

His tagged human Angiopoietin-2 (human), sequence (O15123 19-496 limits assumed): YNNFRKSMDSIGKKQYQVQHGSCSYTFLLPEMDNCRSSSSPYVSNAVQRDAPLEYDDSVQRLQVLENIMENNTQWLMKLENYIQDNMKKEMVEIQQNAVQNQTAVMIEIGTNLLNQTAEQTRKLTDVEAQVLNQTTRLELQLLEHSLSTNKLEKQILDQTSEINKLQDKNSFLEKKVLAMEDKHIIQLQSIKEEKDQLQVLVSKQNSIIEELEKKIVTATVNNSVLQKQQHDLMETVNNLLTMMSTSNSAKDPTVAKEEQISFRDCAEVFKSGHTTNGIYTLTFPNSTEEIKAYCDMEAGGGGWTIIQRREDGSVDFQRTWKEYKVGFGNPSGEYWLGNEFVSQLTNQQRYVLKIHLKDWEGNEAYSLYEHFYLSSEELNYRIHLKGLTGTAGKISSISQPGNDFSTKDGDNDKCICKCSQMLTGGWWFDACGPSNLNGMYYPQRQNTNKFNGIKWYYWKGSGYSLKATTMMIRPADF
recombinant human Ang2 (human), sequence (O15123 19-496 limits assumed): as above

| Kd [1] [nM] | koff [1] [s⁻¹] | kon [1] [M⁻¹ s⁻¹] | IC50 [2] [nM] | IC50; luciferase signal of TGFβ/SMAD SBE Reporter-HEK293 cells stimulated with human TGFβ1 (human TGFβ1 (human)) [nM] | Substance |
| --- | --- | --- | --- | --- | --- |
| 1.23 | 0.000146 | 119000 | 0.5 | – | trebananib (Fc fusion) |
| – | – | – | 0.57 | – | bevacizumab-trebananib |
| – | – | – | – | 2.02 | TGFβ1 RII-Fc (from UniProt P37173 24-159) (Fc fusion) |
